T1: full-length human recombinant IGFBP-4 (insulin-like growth factor binding protein-4) expressed in NS0 cell line, P22692
T1 chain: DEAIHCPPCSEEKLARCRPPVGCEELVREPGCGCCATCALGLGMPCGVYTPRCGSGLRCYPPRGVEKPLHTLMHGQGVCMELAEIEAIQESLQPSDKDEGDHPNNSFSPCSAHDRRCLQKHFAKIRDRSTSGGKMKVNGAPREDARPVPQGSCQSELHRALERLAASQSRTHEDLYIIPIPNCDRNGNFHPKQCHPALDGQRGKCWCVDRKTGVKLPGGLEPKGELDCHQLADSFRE


Biological target: T1, full-length human recombinant IGFBP-4 …

Protein	PAPP-A-dependent cleavage of IGFBP-4, determined by Western blotting
atherosclerotic PAPP-A (pregnancy-associated plasma protein-A purified from human atherosclerotic coronary arteries) (protein) EARGATEEPSPPSRALYFSGRGEQLRLRADLELPRDAFTLQVWLRAEGGQRSPAVITGLYDKCSYISRDRGWVVGIHTISDQDNKDPRYFFSLKTDRARQVTTINAHRSYLPGQWVYLAATYDGQFMKLYVNGAQVATSGEQVGGIFSPLTQKCKVLMLGGSALNHNYRGYIEHFSLWKVARTQREILSDMETHGAHTALPQLLLQENWDNVKHAWSPMKDGSSPKVEFSNAHGFLLDTSLEPPLCGQTLCDNTEVIASYNQLSSFRQPKVVRYRVVNLYEDDHKNPTVTREQVDFQHHQLAEAFKQYNISWELDVLEVSNSSLRRRLILANCDISKIGDENCDPECNHTLTGHDGGDCRHLRHPAFVKKQHNGVCDMDCNYERFNFDGGECCDPEITNVTQTCFDPDSPHRAYLDVNELKNILKLDGSTHLNIFFAKSSEEELAGVATWPWDKEALMHLGGIVLNPSFYGMPGHTHTMIHEIGHSLGLYHVFRGISEIQSCSDPCMETEPSFETGDLCNDTNPAPKHKSCGDPGPGNDTCGFHSFFNTPYNNFMSYADDDCTDSFTPNQVARMHCYLDLVYQGWQPSRKPAPVALAPQVLGHTTDSVTLEWFPPIDGHFFERELGSACHLCLEGRILVQYASNASSPMPCSPSGHWSPREAEGHPDVEQPCKSSVRTWSPNSAVNPHTVPPACPEPQGCYLELEFLYPLVPESLTIWVTFVSTDWDSSGAVNDIKLLAVSGKNISLGPQNVFCDVPLTIRLWDVGEEVYGIQIYTLDEHLEIDAAMLTSTADTPLCLQCKPLKYKVVRDPPLQMDVASILHLNRKFVDMDLNLGSVYQYWVITISGTEESEPSPAVTYIHGSGYCGDGIIQKDQGEQCDDMNKINGDGCSLFCRQEVSFNCIDEPSRCYFHDGDGVCEEFEQKTSIKDCGVYTPQGFLDQWASNASVSHQDQQCPGWVIIGQPAASQVCRTKVIDLSEGISQHAWYPCTISYPYSQLAQTTFWLRAYFSQPMVAAAVIVHLVTDGTYYGDQKQETISVQLLDTKDQSHDLGLHVLSCRNNPLIIPVVHDLSQPFYHSQAVRVSFSSPLVAISGVALRSFDNFDPVTLSSCQRGETYSPAEQSCVHFACEKTDCPELAVENASLNCSSSDRYHGAQCTVSCRTGYVLQIRRDDELIKSQTGPSVTVTCTEGKWNKQVACEPVDCSIPDHHQVYAASFSCPEGTTFGSQCSFQCRHPAQLKGNNSLLTCMEDGLWSFPEALCELMCLAPPPVPNADLQTARCRENKHKVGSFCKYKCKPGYHVPGSSRKSKKRAFKTQCTQDGSWQEGACVPVTCDPPPPKFHGLYQCTNGFQFNSECRIKCEDSDASQGLGSNVIHCRKDGTWNGSFHVCQEMQGQCSVPNELNSNLKLQCPDGYAIGSECATSCLDHNSESIILPMNVTVRDIPHWLNPTRVERVVCTAGLKWYPHPALIHCVKGCEPFMGDNYCDAINNRAFCNYDGGDCCTSTVKTKKVTPFPMSCDLQGDCACRDPQAQEHSRKDLRGYSHG	Atherosclerotic PAPP-A was shown to cleave IGFBP-4 with the same efficiency as recombinant PAPP-A
human recombinant PAPP-A (HyTest) (protein) EARGATEEPSPPSRALYFSGRGEQLRLRADLELPRDAFTLQVWLRAEGGQRSPAVITGLYDKCSYISRDRGWVVGIHTISDQDNKDPRYFFSLKTDRARQVTTINAHRSYLPGQWVYLAATYDGQFMKLYVNGAQVATSGEQVGGIFSPLTQKCKVLMLGGSALNHNYRGYIEHFSLWKVARTQREILSDMETHGAHTALPQLLLQENWDNVKHAWSPMKDGSSPKVEFSNAHGFLLDTSLEPPLCGQTLCDNTEVIASYNQLSSFRQPKVVRYRVVNLYEDDHKNPTVTREQVDFQHHQLAEAFKQYNISWELDVLEVSNSSLRRRLILANCDISKIGDENCDPECNHTLTGHDGGDCRHLRHPAFVKKQHNGVCDMDCNYERFNFDGGECCDPEITNVTQTCFDPDSPHRAYLDVNELKNILKLDGSTHLNIFFAKSSEEELAGVATWPWDKEALMHLGGIVLNPSFYGMPGHTHTMIHEIGHSLGLYHVFRGISEIQSCSDPCMETEPSFETGDLCNDTNPAPKHKSCGDPGPGNDTCGFHSFFNTPYNNFMSYADDDCTDSFTPNQVARMHCYLDLVYQGWQPSRKPAPVALAPQVLGHTTDSVTLEWFPPIDGHFFERELGSACHLCLEGRILVQYASNASSPMPCSPSGHWSPREAEGHPDVEQPCKSSVRTWSPNSAVNPHTVPPACPEPQGCYLELEFLYPLVPESLTIWVTFVSTDWDSSGAVNDIKLLAVSGKNISLGPQNVFCDVPLTIRLWDVGEEVYGIQIYTLDEHLEIDAAMLTSTADTPLCLQCKPLKYKVVRDPPLQMDVASILHLNRKFVDMDLNLGSVYQYWVITISGTEESEPSPAVTYIHGSGYCGDGIIQKDQGEQCDDMNKINGDGCSLFCRQEVSFNCIDEPSRCYFHDGDGVCEEFEQKTSIKDCGVYTPQGFLDQWASNASVSHQDQQCPGWVIIGQPAASQVCRTKVIDLSEGISQHAWYPCTISYPYSQLAQTTFWLRAYFSQPMVAAAVIVHLVTDGTYYGDQKQETISVQLLDTKDQSHDLGLHVLSCRNNPLIIPVVHDLSQPFYHSQAVRVSFSSPLVAISGVALRSFDNFDPVTLSSCQRGETYSPAEQSCVHFACEKTDCPELAVENASLNCSSSDRYHGAQCTVSCRTGYVLQIRRDDELIKSQTGPSVTVTCTEGKWNKQVACEPVDCSIPDHHQVYAASFSCPEGTTFGSQCSFQCRHPAQLKGNNSLLTCMEDGLWSFPEALCELMCLAPPPVPNADLQTARCRENKHKVGSFCKYKCKPGYHVPGSSRKSKKRAFKTQCTQDGSWQEGACVPVTCDPPPPKFHGLYQCTNGFQFNSECRIKCEDSDASQGLGSNVIHCRKDGTWNGSFHVCQEMQGQCSVPNELNSNLKLQCPDGYAIGSECATSCLDHNSESIILPMNVTVRDIPHWLNPTRVERVVCTAGLKWYPHPALIHCVKGCEPFMGDNYCDAINNRAFCNYDGGDCCTSTVKTKKVTPFPMSCDLQGDCACRDPQAQEHSRKDLRGYSHG	Atherosclerotic PAPP-A was shown to cleave IGFBP-4 with the same efficiency as recombinant PAPP-A

— patent US20120178113A1
